Test results taken from paper PMC2518520.

Key:
[1] = biological target: heterotrimeric Gq (Gαqβ1γ2) (UniProt P21279); test: global least-squares fit of a kinetic model to steady-state GTPase rates; GTP-bound Gq species; purified proteins in unilamellar phospholipid vesicles; constants calculated from fitted rate constants (log average of 41 fits); protein concentrations counted on the bilayer volume, so association constants are about 13,000-fold higher than on the aqueous volume
[2] = biological target: complex of agonist-bound m1 muscarinic cholinergic receptor with heterotrimeric Gq (Gαqβ1γ2) (UniProt P11229); test: as above
[3] = biological target: heterotrimeric Gq (Gαqβ1γ2) (UniProt P21279); test: global least-squares fit of a kinetic model to steady-state GTPase rates; nucleotide-free Gq species; purified proteins in unilamellar phospholipid vesicles; constants calculated from fitted rate constants (log average of 41 fits); protein concentrations counted on the bilayer volume, so association constants are about 13,000-fold higher than on the aqueous volume
[4] = biological target: complex of agonist-bound m1 muscarinic cholinergic receptor with heterotrimeric Gq (Gαqβ1γ2) (UniProt P11229); test: as above
[5] = biological target: heterotrimeric Gq (Gαqβ1γ2) (UniProt P21279); test: global least-squares fit of a kinetic model to steady-state GTPase rates; GDP-bound Gq species; purified proteins in unilamellar phospholipid vesicles; constants calculated from fitted rate constants (log average of 41 fits); protein concentrations counted on the bilayer volume, so association constants are about 13,000-fold higher than on the aqueous volume
[6] = biological target: complex of agonist-bound m1 muscarinic cholinergic receptor with heterotrimeric Gq (Gαqβ1γ2) (UniProt P11229); test: as above

Sequence of m1 muscarinic cholinergic receptor (P11229 whole entry): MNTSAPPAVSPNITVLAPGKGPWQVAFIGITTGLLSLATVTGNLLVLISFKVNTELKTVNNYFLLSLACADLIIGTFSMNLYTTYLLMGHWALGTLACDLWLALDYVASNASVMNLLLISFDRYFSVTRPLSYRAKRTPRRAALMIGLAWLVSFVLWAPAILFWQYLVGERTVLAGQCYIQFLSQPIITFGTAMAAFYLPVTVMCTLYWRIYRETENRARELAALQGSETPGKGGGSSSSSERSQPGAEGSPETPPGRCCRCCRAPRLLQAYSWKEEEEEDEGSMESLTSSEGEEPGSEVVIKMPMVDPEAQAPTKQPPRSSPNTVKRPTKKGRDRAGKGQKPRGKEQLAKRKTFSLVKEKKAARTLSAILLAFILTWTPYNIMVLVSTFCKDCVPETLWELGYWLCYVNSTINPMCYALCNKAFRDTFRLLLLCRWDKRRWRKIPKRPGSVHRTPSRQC

Substance	fold faster dissociation with GTP bound [1] [fold]	Ka [1] [M⁻¹]	Ka [2] [M⁻¹]	Ka [3] [M⁻¹]	Ka [4] [M⁻¹]	Ka [5] [M⁻¹]	Ka [6] [M⁻¹]	fold faster dissociation than from Gq-GDP without receptor [6] [fold]	t1/2 of dissociation [6] [s]
m1 muscarinic cholinergic receptor (from UniProt P11229 1-460)	70	–	–	–	–	–	–	–	–
phospholipase C-β1 (from UniProt P10687 1-1216) (enzyme)	–	9.6e+06	390000	370000	560000	280000	2300	90	0.3
